Numbering of substitutions follows the chain as printed.
B1: hRND-2 (antibody, human IgG1, kappa, V domains shown)
VH: QVQLVQSGAEVKKPGASVKVSCKASGYAFTSYWMHWVRQAPGQRLEWMGEIYPTNGGTTYAQKFQGRVTMTVDKSTSTAYMELSRLRSDDTAVYYCTIEDFYAMDYWGQGTTVTVSS
VL: DIVMTQTPLSLSVTPGQPASISCKSSQSLLDSDGKTSLNWLLQKPGQSPQRLIYLVSKLDSGVPDRFSGSGSGTDFTLKISRVEAEDVGVYYCWQGTHFPYTFGQGTKLEIKR
notes: also called humanized RND-2; hRND-H2 / hRND-L3; copies: 2 + 2
B2: hRND-3 (antibody, human IgG1, kappa, V domains shown)
VH: B1 VH with V20L, M48I, V68A, M70L
VL: B1 VL
notes: also called humanized RND-3; hRND-H3 / hRND-L3; copies: 2 + 2
B3: hRND-4 (antibody, human IgG1, kappa, V domains shown)
VH: B1 VH with A61N, Q62E, Q65K, G66R
VL: B1 VL
notes: also called humanized RND-4; hRND-H2b / hRND-L3; copies: 2 + 2
B4: hRND-5 (antibody, human IgG1, kappa, V domains shown)
VH: B1 VH with V20L, M48I, A61N, Q62E, Q65K, G66R, V68A, M70L
VL: B1 VL
notes: also called humanized RND-5; hRND-H3b / hRND-L3; copies: 2 + 2

The binders below were run against T1, siglec 8 expressed on HEK293 cells (UniProt Q9NYZ4 17-499, limits assumed) (assay: flow cytometry on HEK293 cells expressing the target).
T1 construct: whole, on cells; also called Siglec-6 family member
T1 sequence (Q9NYZ4 17-499 limits assumed): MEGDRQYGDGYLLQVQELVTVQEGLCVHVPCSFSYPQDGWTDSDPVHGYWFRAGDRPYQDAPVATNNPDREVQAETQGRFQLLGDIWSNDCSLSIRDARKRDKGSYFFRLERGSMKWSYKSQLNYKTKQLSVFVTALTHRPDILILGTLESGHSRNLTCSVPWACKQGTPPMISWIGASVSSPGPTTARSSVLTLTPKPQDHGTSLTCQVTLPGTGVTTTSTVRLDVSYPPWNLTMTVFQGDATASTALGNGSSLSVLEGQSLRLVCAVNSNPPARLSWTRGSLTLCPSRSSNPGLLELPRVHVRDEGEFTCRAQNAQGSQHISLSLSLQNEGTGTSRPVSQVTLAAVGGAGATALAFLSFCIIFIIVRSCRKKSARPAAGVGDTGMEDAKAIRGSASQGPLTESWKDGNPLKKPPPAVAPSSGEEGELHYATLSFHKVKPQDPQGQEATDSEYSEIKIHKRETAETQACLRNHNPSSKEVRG
Method: (§1) Cultured HEK293 cells expressing human siglec-6, cynomolgus siglec-6, or siglec 6 family members were resuspended in FACS Blocking Buffer (PBS+10% normal human serum) for 30 minutes. Following washing, cells were incubated with siglec-6 antibodies in FACS Buffer (PBS+0.5% bovine serum albumin+0.09% sodium azide) and incubated at 4° C. for 30 minutes, washed and incubated with PE-labeled anti-human secondary antibody. Cells were incubated at 4° C. for 30 minutes in the dark. Following washing, cytofluorimetric analysis was conducted using a BD FACS Symphony A3 (BD Biosciences). Cells were sorted by scatter properties and separated for single cell analysis using side scatter width vs side scatter area. Antibody binding to cells was quantitated by measuring fluorescent emissions of excitation wavelength of 561 nm using a 586/15 nm filter. Data analysis was performed using FlowJo Software.

Row | Binder | binding result
1 | B1 | no binding
2 | B2 | no binding
3 | B3 | no binding
4 | B4 | no binding

These binders were tested against T2, siglec 3 expressed on HEK293 cells (UniProt P20138 18-364, limits assumed) in the same assay as above.
T2 construct: whole, on cells; also called Siglec-6 family member
T2 sequence (P20138 18-364 limits assumed): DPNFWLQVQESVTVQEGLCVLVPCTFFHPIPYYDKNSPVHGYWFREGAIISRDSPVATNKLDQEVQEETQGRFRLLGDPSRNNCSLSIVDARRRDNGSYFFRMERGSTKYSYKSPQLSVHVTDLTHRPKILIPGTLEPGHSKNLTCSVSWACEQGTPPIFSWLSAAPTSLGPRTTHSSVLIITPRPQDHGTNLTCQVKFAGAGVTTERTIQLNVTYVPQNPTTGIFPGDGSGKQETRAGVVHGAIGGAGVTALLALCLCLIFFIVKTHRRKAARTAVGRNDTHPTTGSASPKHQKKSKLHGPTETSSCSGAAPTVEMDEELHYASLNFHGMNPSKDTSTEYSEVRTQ
Method: as §1

Row | Binder | binding result
5 | B1 | no binding
6 | B2 | no binding
7 | B3 | no binding
8 | B4 | no binding

Each binder was assayed against T3, Human siglec-6 (BLI analyte) (human, UniProt O43699 27-347, limits assumed) (assay: BLI (Octet), antibody on capture sensor).
T3 construct: also called human siglect-6
T3 sequence (O43699 27-347 limits assumed): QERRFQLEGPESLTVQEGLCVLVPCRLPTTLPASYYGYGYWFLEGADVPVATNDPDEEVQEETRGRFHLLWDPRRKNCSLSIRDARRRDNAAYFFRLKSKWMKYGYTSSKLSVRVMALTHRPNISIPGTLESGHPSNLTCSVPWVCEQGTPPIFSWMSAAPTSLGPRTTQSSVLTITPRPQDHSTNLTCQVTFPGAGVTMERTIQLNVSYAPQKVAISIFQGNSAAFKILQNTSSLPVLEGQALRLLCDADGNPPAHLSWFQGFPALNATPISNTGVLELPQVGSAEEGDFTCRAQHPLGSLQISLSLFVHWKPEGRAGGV
Method: Further, binding affinities of siglec-6 antibodies to human siglec-6 were measured by […] using an Octect instrument. Briefly, capture sensors were loaded with test antibodies with 3-fold dilutions. The association and dissociation rates to were determined and used to calculate the equilibrium dissociation constant KD (Table 6).

Row | Binder | Kd [nM]
9 | B1 | 0.17
10 | B2 | 0.137
11 | B3 | 0.315
12 | B4 | 0.166
